According to patent US20250129146A1, “COMBINED CANCER THERAPY WITH AN EPITHELIAL CELL ADHESION MOLECULE (EPCAM) INHIBITOR AND A WNT INHIBITOR” (ACADEMIA SINICA, priority 2021, published 2025):
Blank lines part the entries; values can stand above or below the molecule they belong to.

What was measured:
Format in all cases: cell-based, human
[1] = system: HCT116, HT29 and SW620 cells; assay: Tumorsphere assay; details: for sphere formation capacity: SW620 cells, exogenous Wnt3A, EpEX or combination
Experimental: Cells were seeded in ultra-low adherent 6-well plates (5×10^4 cells per well) or 24-well plates (1×10^3 cells per well) and maintained in DMEM/F-12 supplemented with B27. Further, cells were treated with 20 μg/mL mEpAb2-6, hEpAb2-6 or MT201 (Produced in house), or 400 ng/mL LGK974 (MedChemExpress) or the combination, by direct addition to the culture medium. The entire culture medium, including the treatment component, was changed in every other day. Cells were cultured for 10 days, and on 10th day, spheres were counted and photographed under the microscope.

[2] = system: TCF; assay: TCF activity (TOP-Flash TCF luciferase reporter)
Experimental: Cells were plated at 5×10^3 cells per well and grown overnight in 12-well plates. Then, cells were transiently transfected with TOP-Flash TCF reporter plasmid (Millipore) using poly-jet transfection reagent (SignaGen). At 48 h post transfection, cells were treated with 20 µg/mL Anti-EpCAM EpAb2-6 (Produced in house) or MT201 (Produced in house) for 6 h or 400 ng/mL LGK974 (MedChemExpress) for 9 h or the combination, as indicated. In addition, cells were treated with EpEX (Produced in house by Expi293 Expression System) or recombinant Wnt3A (R & D systems) or the combination for 8 h. Finally, cells were lysed, and the luciferase assay was performed.
The cells were seeded in 24-well plates (1×10^4 cells/well) and incubated at 37° C. for 24 h. The culture media were refreshed, and the cells were transfected with respective reporter plasmids (TCF reporter or Wnt receptor promoter reporter) by PolyJET (SignaGen). The transfected efficiency was normalized by co-transfected with pRL-TK (20 ng) as an internal control. Additional treatments were conducted as indicated. Firefly luciferase and Renilla luminescence were measured 48 h post-transfection using the Dual-Glo Luciferase Assay System (Promega), according to the manufacturer's recommendations.

[3] = system: active β-Catenin; assay: Nuclear translocation of β-Catenin (immunofluorescence staining; cell fractionation with western blot)
Experimental: Cells (1×10^6) were seeded overnight and further allowed to grow in serum free conditions. Then cells were further treated with 20 μg/mL mEpAb2-6 or hEpAb2-6 or MT201 for 6 h or with 400 ng/mL LGK974 (MedChemExpress) for 9 h or combination as indicated. Samples were fractioned into cytosol and nuclear extracts using nuclear/cytosol fractionation kit (Biovision) according to the manufacturer's protocol. The fractions were then subjected to western blot analysis.
(§1) For western blotting, cells were extracted using radioimmunoprecipitation assay (RIPA) buffer [(0.01 M sodium phosphate, pH 7.2), 150 mM NaCl, 2 mM EDTA, 50 mM NaF, 1% Nonidet P-40, 1% sodium deoxycholate, and 0.1% SDS)] containing phosphatase inhibitor (Roche) and protease inhibitor (Roche) cocktail. Equal amounts of protein were separated by SDS-PAGE and then transferred to PVDF membranes. The membranes were blocked with 3% BSA in TBST (Blocking solution) and incubated with necessary primary antibodies in the blocking solution overnight at 4° C. Membranes were then incubated with HRP-conjugated secondary antibodies in the blocking solution for 1 h at room temperature, and protein expression were detected. Antibodies used: anti-α-tubulin (Sigma), anti-EpCAM (abeam), anti-Active β-Catenin (Millipore), anti-total β-Catenin (abeam), anti-Frizzled 6 (CST), anti-Frizzled 7 (Santa Cruz Biotech), anti-LRP5 (abcam), anti-Phospho-LRP5 (abcam), anti-Phospho-LRP6 (CST), anti-LRP6 (CST) and anti-EpEX antibody EpAb3-5 (Produced in house), anti-ADAM17 (abcam), anti-phopho-ADAM17 (abcam), anti-Presenilin2 (abcam), anti-phospho-Presenilin2 (S327) (abcam), anti-phospho-Presenilin2 (S330) (abcam) and anti-Axin2 (CST).
Glass slides were used in 24-well plates and coated with 0.1% gelatin. Further, 3×10^4 cells were seeded in serum free medium overnight. Cells were treated with 20 μg/mL EpAb2-6 for 6 h, or 400 ng/mL LGK974 (MedChemExpress) for 9 h or the combination. Cells were washed using ice-cold PBS and fixed with 4% paraformaldehyde for 15 min at RT and washed with ice-cold PBS. Further, cells were permeabilized using 0.1% triton-X in PBS for 20 min and subsequently washed with PBS. Cells were blocked with 3% BSA in PBS for 1 h at RT. Next, cells were treated with primary antibody anti-Active β-Catenin (Millipore) overnight. Then, cells were washed and treated with secondary antibody in 3% BSA containing PBS along with DAPI for 1 h at RT. Samples were then washed in PBS five times and mounted for microscopy. Nuclear β-Catenin intensities were calculated using IMARIS (Oxford Instruments) software.

[4] = system: HT29 and SW620 cells; assay: Colony formation assay; details: for colony formation capacity: SW620 cells, exogenous Wnt3A, EpEX or combination
Experimental: Cells were seeded in 12-well plate (5×10^3 cells per well) and treated with 20 µg/mL mEpAb2-6, hEpAb2-6 or MT201 (Produced in house) or 400 ng/mL LGK974 (MedChemExpress) or combination as indicated in which case the elements were directly added to the culture medium. The medium along with the treatment component were changed in every alternating day and the cells were allowed to grow for 10 days. On the tenth day, cells were washed and fixed with 4% paraformaldehyde and further stained with 1% crystal violet for 30 min. Colonies were washed 3 times with PBS, and images were taken. Furthermore, to measure colony density, the wells were incubated with 0.5% SDS shaking for 2 h at RT. The supernatants were collected, and the absorbance of the solution was taken at 570 nm using a microplate reader.

[5] = system: LRP5/6; assay: Phosphorylation of LRP5/6 (western blot)
Experimental: as §1

[6] = system: Oct4, Sox2 and c-Myc; assay: Stemness (pluripotency) factor expression (western blot, qPCR); details: HT29 cells
Experimental: as §1
(§2) Total RNA was extracted using TRI reagent and 5 μg of the total RNA was further reverse-transcribed using oligo (dT) primer with reverse transcriptase. Quantitative real time RT-PCR (qPCR) was performed on cDNA using the Light Cycler 480 SYBR Green-I Master kit and the LightCycler480 System. The gene expression levels of each sample were normalized to the expression levels of glyceraldehyde 3-phosphate dehydrogenase (GAPDH) or β-actin.

[7] = system: Wnt receptors (FZD6/7, LRP5/6); assay: Wnt receptor protein and mRNA expression (western blot, qPCR); details: HCT116 cells
Experimental: as §1, §2

[8] = HCT116 cells, exogenous EpEX, Wnt3A or combination
[9] = EpEX, Wnt3A or combination, protein and mRNA level
[10] = wild-type SW620 and HCT116 cells, EpEX, recombinant Wnt3A or the combination for 8 h
[11] = wild-type HCT116 cells, EpEX, recombinant Wnt3A or both
[12] = EpCAM-knockout cells, exogenous EpEX, LGK974 or both

TCF activity ([2]; HT29 cells, 20 µg/mL antibody for 6 h): did not show any significant effects
Molecule: MT201: adecatumumab, a human anti-EpCAM antibody that was subjected to clinical trials [reference compound]
ability to inhibit sphere formation ([1]; comparison of EpAb2-6 with MT201, 20 μg/mL): shows no activity | nuclear translocation of β-Catenin ([3]; HT29 cells, 20 μg/mL hEpAb2-6 or MT201 for 6 h): did not show any significant effects | ability to inhibit colony formation ([4]; comparison of EpAb2-6 with MT201, 20 g/mL): shows no activity

TCF activity [2, 10]: could increase
B1: Wnt3A: recombinant Wnt3A (R & D systems) (protein, UniProt P56704 19-352, looked up)
Protein Wnt-3a: SYPIWWSLAVGPQYSSLGSQPILCASIPGLVPKQLRFCRNYVEIMPSVAEGIKIGIQECQHQFRGRRWNCTTVHDSLAIFGPVLDKATRESAFVHAIASAGVAFAVTRSCAEGTAAICGCSSRHQGSPGKGWKWGGCSEDIEFGGMVSREFADARENRPDARSAMNRHNNEAGRQAIASHMHLKCKCHGLSGSCEVKTCWWSQPDFRAIGDFLKDKYDSASEMVVEKHRESRGWVETLRPRYTYFKVPTERDLVYYEASPNFCEPNPETGSFGTRDRTCNVSSHGIDGCDLLCCGRGHNARAERRREKCRCVFHWCCYVSCQECTRVYDVHTCK
sphere formation capacity [1]: enhanced | LRP5/6 phosphorylation [5, 8]: increased LRP5/6 phosphorylation | expression of pluripotency factors ([6]; EpEX, Wnt3A or combination): induced expressions of pluripotency factors | expression of Wnt receptors [7, 9]: upregulated expressions of Wnt receptors | nuclear translocation of β-Catenin [3, 11]: could increase | colony formation capacity [4]: enhanced

B2: EpAb2-6: anti-EpCAM (EpEX) neutralizing monoclonal antibody produced in mice by hybridoma; VH SEQ ID NO: 15, VL SEQ ID NO: 16 (antibody, V domains shown)
VH: VKLQESGPELKKPGETVKISCKASGYTFTDYSMHWVKQAPGKGLKWMGWINTETGEPTYADDFKGRFAFSLETSASTAYLQINNLKNEDTATYFCARTAVYWGQGTTVTVSS
VL: DIQMTQSPSSLSASLGERVSLTCRASQEISVSLSWLQQEPDGTIKRLIYATSTLDSGVPKRFSGSRSGSDYSLTISSLESEDFVDYYCLQYASYPWTFGGGTKLEIK
tumorsphere formation ([1]; HCT116 and HT29 cells, 20 μg/mL EpAb2-6, 400 ng/mL LGK974 or combination, 10 days): decreased | cancer stemness properties ([1]; summary statement, CRC cells, tumorsphere and colony formation): partially attenuate cancer sternness properties | LRP5/6 phosphorylation ([5]; SW620 cells, LGK974, EpAb2-6 or combined treatment): could decrease LRP5/6 phosphorylation | expression of pluripotency factors ([6]; LGK974, EpAb2-6 or combined treatment): decreased pluripotency factor expressions | expression of Wnt receptors ([7]; EpAb2-6, LGK974 or combination): partially decrease | nuclear β-Catenin ([3]; wild-type HCT116 cells, 20 μg/mL EpAb2-6 for 6 h, 400 ng/mL LGK974 for 9 h or combination): significantly decreased nuclear β-Catenin signal | colony formation ([4]; HT29 cells, 20 µg/mL EpAb2-6, 400 ng/mL LGK974 or combination, 10 days): decreased

TCF activity ([2]; EpEX-treated EpCAM-knockdown and knockout HCT116 cells): significantly rescued the phenomenon | TCF activity [2, 10]: could increase
B3: EpEX: extracellular domain of EpCAM, produced in house by Expi293 Expression System (protein)
chain: QEECVCENYKLAVNCFVNNNRQCQCTSVGAQNTVICSKLAAKCLVMKAEMNGSKLGRRAKPEGALQNNDGLYDPDCDESGLFKAKQCNGTSMCWCVNTAGVRRTDKDTEITCSERVRTYWIIIELKHKAREKPYDSKSLRTALQKEITTRYQLDPKFITSILYENNVITIDLVQNSSQKTQNDVDIADVAYYFEKDVKGESLFHSKKMDLTVNGEQLDLDPGQTLIYYVDEKAPEFSMQGLKAGVIAVIVVVVIAVVAGIVVLVISRKKRMAKYEKAEIKEMGEMHRELNA
tumorsphere formation [1, 12]: reverted to wild-type levels | sphere formation capacity [1]: enhanced | LRP5/6 phosphorylation [5, 8]: increased LRP5/6 phosphorylation | expression of pluripotency factors ([6]; EpEX, Wnt3A or combination): induced expressions of pluripotency factors | expression of Wnt receptors [7, 9]: upregulated expressions of Wnt receptors | nuclear accumulation of β-Catenin ([3]; shEpCAM or KO-EpCAM HCT116 cells treated with exogenous EpEX): significant increase in nuclear accumulation of β-Catenin | nuclear translocation of β-Catenin [3, 11]: could increase | colony formation [4, 12]: reverted to wild-type levels | colony formation capacity [4]: enhanced
